Assay results: patent publication US20250270274A1 (SERPENTIDE, published 2025)
Where two headings read alike, the source gives them in different places. Where no end group is shown, it is not given here.

Assays:
Experiment in all cases: cell-based or functional assay
[1] = molecular target: T1, human GIP receptor (human, UniProt P48546 22-466)
T1 sequence (looked up): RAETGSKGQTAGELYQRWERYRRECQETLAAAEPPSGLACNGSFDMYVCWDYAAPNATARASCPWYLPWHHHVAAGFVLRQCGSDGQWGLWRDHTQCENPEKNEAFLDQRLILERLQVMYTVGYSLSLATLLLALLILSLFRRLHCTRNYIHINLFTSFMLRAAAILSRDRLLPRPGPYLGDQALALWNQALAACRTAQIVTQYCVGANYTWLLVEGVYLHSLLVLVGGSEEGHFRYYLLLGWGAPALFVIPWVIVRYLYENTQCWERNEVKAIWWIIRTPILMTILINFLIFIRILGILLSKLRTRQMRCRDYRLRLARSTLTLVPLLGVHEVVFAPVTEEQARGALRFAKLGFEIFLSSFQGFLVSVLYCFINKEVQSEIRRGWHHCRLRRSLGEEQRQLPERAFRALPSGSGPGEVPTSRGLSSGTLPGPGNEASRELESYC

[2] = molecular target: T2, human GLP1 receptor (human, UniProt P43220 24-463)
[3] = molecular target: T2, human GLP1 receptor; remark: listed apart in the source
[4] = molecular target: T1, human GIP receptor; remark: listed apart in the source
[5] = molecular target: T3, mouse GIP receptor (mouse, UniProt Q0P543 19-460)
T3 sequence (looked up): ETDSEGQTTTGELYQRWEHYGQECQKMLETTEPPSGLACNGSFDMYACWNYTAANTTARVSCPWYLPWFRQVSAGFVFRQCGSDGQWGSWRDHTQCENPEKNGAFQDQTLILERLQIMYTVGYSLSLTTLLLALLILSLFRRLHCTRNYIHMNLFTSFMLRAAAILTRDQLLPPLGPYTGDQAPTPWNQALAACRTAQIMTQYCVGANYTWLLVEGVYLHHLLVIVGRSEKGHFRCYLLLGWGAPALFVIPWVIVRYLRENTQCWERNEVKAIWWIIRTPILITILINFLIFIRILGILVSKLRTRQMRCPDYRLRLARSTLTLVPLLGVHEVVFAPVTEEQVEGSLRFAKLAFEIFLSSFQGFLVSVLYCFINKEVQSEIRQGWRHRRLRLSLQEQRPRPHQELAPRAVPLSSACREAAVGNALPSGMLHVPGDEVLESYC

With YGEGTFTSDYSIYLDKIAQKAFVQWLIAGGPSSGAPPPS (ends and bridges not checked) [SP02: GLP1/GIP receptor co-agonist analogue] the “EC50, HTRF cAMP bioassay” value [1] was 3.69 nM.

For YGEGTFTSDYSIQLDKIAQKAFVQWLIAGGPSSGAPPPS (ends and bridges not checked) [SP03: GLP1/GIP receptor co-agonist analogue], the “EC50, HTRF cAMP bioassay” value [2] was 0.225 nM and the “EC50, HTRF cAMP bioassay” value [1] was 22 nM.

B1: P26: SP02-bispecific antibodies for GLP1R and GIPR (bispecific antibody, human IgG1, kappa)
chain 1: YGEGTFTSDYSIYLDKIAQKAFVQWLIAGGPSSGAPPPSGGGGSGGGGSGGGGSDIVMTQSPSSLTVTAGEKVTMSCKSSQSLLNSGNQKNYLTWYQQKPGQPPKLLISWASTRDSGVPDRFTGSGSGTDFTLTISSVQAEDLAVYYCQNDYSYPLTFGAGTKLELKRTVAAPSVFIFPPSDEQLKSGTASVVCLLNNFYPREAKVQWKVDNALQSGNSQESVTEQDSKDSTYSLSSTLTLSKADYEKHKVYACEVTHQGLSSPVTKSFNRGEC
chain 2: YGEGTFTSDYSIYLDKIAQKAFVQWLIAGGPSSGAPPPSGGGGSGGGGSGGGGSQIVLTQSPAIMSASPGEKVTMTCSASSRVTYMHWYQQRSGTSPKRWIYDTSKLASGVPARFSGSGSGTSYSLTISSMEAEDAATYYCQQWGNNPQYTFGGGTRLEIKRTVAAPSVFIFPPSDEQLKSGTASVVCLLNNFYPREAKVQWKVDNALQSGNSQESVTEQDSKDSTYSLSSTLTLSKADYEKHKVYACEVTHQGLSSPVTKSFNRGEC
chain 3: not shown
chain 4: not shown
B1 was tested, and the “EC50, HTRF cAMP bioassay” value [3] was 0.12 nM, the “EC50, HTRF cAMP bioassay” value [4] was 48 nM and the “EC50, HTRF cAMP bioassay” value [5] was 0.35 nM.

B2: P28: SP02-amG2 (antibody, human IgG4 S228P, kappa, F234A L235A)
light: YGEGTFTSDYSIYLDKIAQKAFVQWLIAGGPSSGAPPPSGGGGSGGGGSGGGGSDIVMTQSPSSLTVTAGEKVTMSCKSSQSLLNSGNQKNYLTWYQQKPGQPPKLLISWASTRDSGVPDRFTGSGSGTDFTLTISSVQAEDLAVYYCQNDYSYPLTFGAGTKLELKRTVAAPSVFIFPPSDEQLKSGTASVVCLLNNFYPREAKVQWKVDNALQSGNSQESVTEQDSKDSTYSLSSTLTLSKADYEKHKVYACEVTHQGLSSPVTKSFNRGEC
heavy: not shown
In the case of B2, the “EC50, HTRF cAMP bioassay” value [3] is reported as 1.25 nM, the “EC50, HTRF cAMP bioassay” value [4] is reported as 69 nM and the “EC50, HTRF cAMP bioassay” value [5] is reported as 0.42 nM.

B3: P46: SP01-amG3 (antibody, human IgG4 S228P, kappa, F234A L235A)
light: HGEGTFTSDVSSYLEEQAAKEFIAWLVKGGGGGGGSGGGGSGGGGSDVVMTQTPLSLPVSLGDQASISCRSSQSLVHSNGDTYLHWYLQKPGQSPKLLIYKVSNRFSGVPDRFSGSGSGTDFTLKISRVEAADLGVYFCSQSTHVPPFTFGGGTKLEIKRTVAAPSVFIFPPSDEQLKSGTASVVCLLNNFYPREAKVQWKVDNALQSGNSQESVTEQDSKDSTYSLSSTLTLSKADYEKHKVYACEVTHQGLSSPVTKSFNRGEC
heavy: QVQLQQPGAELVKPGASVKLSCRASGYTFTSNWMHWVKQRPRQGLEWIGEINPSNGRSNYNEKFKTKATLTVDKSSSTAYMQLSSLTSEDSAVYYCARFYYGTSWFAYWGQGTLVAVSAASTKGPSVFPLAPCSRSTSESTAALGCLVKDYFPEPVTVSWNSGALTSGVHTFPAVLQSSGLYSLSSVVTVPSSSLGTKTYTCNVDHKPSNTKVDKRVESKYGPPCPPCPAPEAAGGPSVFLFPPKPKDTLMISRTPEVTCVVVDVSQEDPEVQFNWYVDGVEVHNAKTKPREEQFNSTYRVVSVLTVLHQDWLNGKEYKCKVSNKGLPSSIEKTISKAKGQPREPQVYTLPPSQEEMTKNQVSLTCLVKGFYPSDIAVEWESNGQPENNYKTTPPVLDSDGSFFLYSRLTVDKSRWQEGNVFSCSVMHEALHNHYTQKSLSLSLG
B3 was tested, and the “EC50, HTRF cAMP bioassay” value [3] was 0.034 nM and the “IC50, HTRF cAMP bioassay” value [5] was 11.2 nM.
